{"source": "patent US8029979B2", "about": "“Method for determining the substrate specificity of an enzyme” (JPT Peptide Technologies GmbH, priority 2001, dated 2011)", "biological_target": "T1, protein kinase A (Bos taurus, UniProt P00517)", "T1 construct": "purchased Sigma P26452 as printed", "assay": "Incubation of modified glass surface (960 spots) with protein kinase A (FIG. 7, Example 27)", "assay_type": "biochemical", "conditions": "aldehyde-functionalised glass, amino-oxy linkage, protein kinase A 10 U/mL, 30 min at 25° C.", "method": "FIG. 7. A glass surface modified with the peptide Dpr(Aoa)-Leu-Arg-Arg-Ala-Ser-Leu-Gly-NH2 (see Example 22) was first pre-incubated for 10 minutes using 10 ml of 100 μM ATP solution in 50 mM of sodium phosphate buffer pH 7.5. […] After incubation for 30 min at 25° C. the phosphorylation of the corresponding peptides was detected using a FUJIFILM PhosphorImager (see Example 14). […] It is furthermore clear that the resolution of the PhosphorImager used here is sufficient to analyse more than 950 measurement points per biochip.\nA glass surface modified with the peptide Dpr(Aoa)-Leu-Arg-Arg-Ala-Ser-Leu-Gly-NH2 (see Example 22) was incubated with 10 mL of 100 μM ATP in kinase buffer (50 mM tris-HCl, 150 mM NaCl, 30 mM MgCl2, 4 mM DTT, 2 mM EGTA, pH 7.5) for 10 minutes at room temperature. The glass surface was dried and a second unmodified glass surface of the same dimensions was then placed on the peptide-modified glass surface. […] Incubation was then carried out for 30 min at room temperature in an almost water-saturated atmosphere. […]\nAfter drying the glass surface the quantity of radioactive phosphate incorporated in the glass-surface-bound peptides was determined using a PhosphorImager system (FLA-3000, FUJIFILM) (see FIG. 7).", "data": [{"substance": "Dpr(Aoa)-Leu-Arg-Arg-Ala-Ser-Leu-Gly-NH2 ({Dpr(Aoa)}-LRRASLG-NH2)", "values": [{"measurement": "linking of the immobilised kinase substrate tolerated by protein kinase A", "value": "tolerated by the protein kinase A"}]}]}
